Assays:
[1] = Immunohistochemistry of lung sections with anti-avidin antibody after aerosol exposure; format: in vivo, Balb/c mice; settings: 24 hours after aerosol exposure
Method: The lungs were removed and fixed in formalin and paraffin embedded. Serial sections obtained by means of a microtome were processed and incubated with a HRP-conjugated rabbit anti-avidin antibody (GeneTex, USA) and then with DAB substrate.

[2] = Biodistribution of i.v. 111In-ST2210 after nebulised oxidized avidin; format: in vivo, Balb/c mice; settings: nebulised 1 hour (about 90 mg/kg); 111In-ST2210 i.v. 24 h later; sacrifice after 2 or 24 hours
Method: A biodistribution experiment aimed at determining the lung uptake selectivity and stability of ^111In-ST2210 was conducted. […] Twenty four hours after, all mice received ^111In-ST2210 intravenously (i.e., 1 μg in 0.2 ml of saline), and after further 2 or 24 hours, the animals were sacrificed by CO2 asphyxia. The lung and non target organs were collected weighed and counted in a gamma counter.

[3] = tested on: A431 cells; assay: Inhibition of proliferation, Cell Titer Glow assay; format: cell-based, Human; settings: oxidized avidin alone compared with medium only (data not shown)
Method: Proliferation inhibition was measured by Cell Titer Glow assay, Promega.

[4] = Uptake of i.v. 111In-ST2210 in lung and non target organs 24 h after inhalation exposure
Method: Twenty Sprague Dawley rats were divided in three different groups.
All rats were sacrificed 2 hours after the i.v. administration of ^111In-ST2210, and samples of blood, spleen, kidney, liver, stomach, brain, trachea, and tissue samples of different portions of lung were collected, weighed and analyzed with the use of a gamma-counter (Perkin Elmer). Data were expressed as the % of injected dose/gram of tissue (% ID/g).

[5] = PET imaging of i.v. 64Cu-ST2210 after nebulised oxidized avidin; format: in vivo, Balb/c mice; settings: 64Cu-ST2210 1 μg i.v. 24 h after aerosol; PET 4 hours after
Method: After 24 hours, they received an intravenous 1 μg dose of ^64Cu-ST2210. ^64Cu-ST2210 distribution was examined by PET imaging 4 hours after. […] Kidneys, bladder are visible in both groups of mice. This observation is consistent with the physiological elimination of ST2210 at that time point.

[6] = Linkage of instilled oxidized avidin to surgically lesioned bladder, PET with i.v. 68-Ga-ST2210; format: in vivo, pig; settings: 1 h instillation, PET 4 h after 68-Ga-ST2210 i.v.
Method: Anesthetised female pig of about 40 kg was subjected to surgery to generate two 2 cm superficial lesions on the bladder wall. […] Bladder was then washed with saline and 0.5 μg 68-Ga-ST2210 was i.v. administered. After 4 hours the pig was subjected to PET.

[7] = Chemical integrity of oxidized avidin after nebulisation (HPLC); format: physicochemical; settings: 3.0 mg/ml in 100 mM sodium acetate pH 5.5, nebulised 1 hour at room temperature
Text: The particle size of the protein solution midst was 5 μm. The nebulised solution was recovered in a falcon tube and analyzed by HPLC.

## Oxidized avidin: chemically oxidized avidin according to example 1 of WO2009016031, about 8 to 15 aldehyde moieties
[1]
  distribution of oxidized avidin in the lung: homogenous in all lung compartments
  localisation of oxidized avidin in lung sections: presence of oxidized avidin at broncho/epithelial level down to terminal bronchioles
[2]
  uptake of 111In-ST2210 in the lung: specific and significant uptake
[3]
  effect on cell proliferation: did not affect cell proliferation
[4]; Blood, 2 h after i.v. 111In-ST2210, 24 h after inhalation (about 10 mg/kg)
  111In-ST2210 % ID/g Blood: 0.012 ± 0.004 % ID/g
[4]; Kidney, 2 h after i.v. 111In-ST2210, 24 h after inhalation
  111In-ST2210 % ID/g Kidney: 0.414 ± 0.033 % ID/g
[4]; Liver, 2 h after i.v. 111In-ST2210, 24 h after inhalation
  111In-ST2210 % ID/g Liver: 0.051 ± 0.005 % ID/g
[4]; Lung dx (caudal lobe), 2 h after i.v. 111In-ST2210, 24 h after inhalation
  111In-ST2210 % ID/g Lung dx (caudal lobe): 0.055 ± 0.009 % ID/g
[4]; Lung dx (cranial, middle and accessory lobe), 2 h after i.v. 111In-ST2210, 24 h after inhalation
  111In-ST2210 % ID/g Lung dx (cranial, middle and accessory lobe): 0.055 ± 0.011 % ID/g
[4]; Lung sn, 2 h after i.v. 111In-ST2210, 24 h after inhalation
  111In-ST2210 % ID/g Lung sn: 0.053 ± 0.008 % ID/g
[4]; Lung, 2 h after i.v. 111In-ST2210, 24 h after inhalation
  111In-ST2210 % ID/g Lung: 0.054 ± 0.009 % ID/g
[4]; Spleen, 2 h after i.v. 111In-ST2210, 24 h after inhalation
  111In-ST2210 % ID/g Spleen: 0.032 ± 0.002 % ID/g
[4]; Stomach, 2 h after i.v. 111In-ST2210, 24 h after inhalation
  111In-ST2210 % ID/g Stomach: 0.276 ± 0.246 % ID/g
[4]; Trachea, 2 h after i.v. 111In-ST2210, 24 h after inhalation
  111In-ST2210 % ID/g Trachea: 0.029 ± 0.007 % ID/g
[4]; lung versus trachea
  organ linkage of nebulised oxidized avidin: bound to the lung but not to the trachea
[5]
  64Cu-ST2210 PET signal in the lungs: presence of a radioactive signal in the lungs
[6]; intact bladder tissue
  binding to bladder tissue: completely inert
[6]; region subjected to surgery
  binding to bladder tissue: enabled the binding of oxidized avidin
[7]
  HPLC elution profile pre and post nebulisation: same elution profile

Source: US9872831B2 (ALFASIGMA S.P.A., priority 2011, dated 2018)
